Consider 16 sequences from the DeepSol protein solubility set.

The data set is described as follows: soluble on expression in E. coli; label from the status in PepcDB or PDB records.
Regarding “SHEELNDQLRVRREKLKKIEELGVDPFGKRFERTHKAEELFELYGDLSKEELEEQQIEVAVAGRIMTKRGMGKAGFAHIQDVTGQIQIYVRQDDVGEQQYELFKISDLGDIVGVRGTMFKTKVGELSIKVSSYEFLTKALRPLPEKYHGLKDIEQRYRQRYLDLIMNPESKKTFITRSLIIQSMRRYLDSHGYLEVETPMMHAVAGGAAARPFITHHNALDMTLYMRIAIELHLKRLIVGGLEKVYEIGRVFRNEGISTRHNPEFTMLELYEAYADFRDIMKLTENLIAHIATEVLGTTKIQYGEHLVDLTPEWRRLHMVDAIKEYVGVDFWRQMSDEEARELAKEHGVEVAPHMTFGHIVNEFFEQKVEDKLIQPTFIYGHPVEISPLAKKNPDDPRFTDRFELFIVGREHANAFTELNDPIDQRQRFEEQLKEREQGNDEAHEMDEDFLEALEYGMPPTGGLGIGVDRLVMLLTNSPSIRDVLLFPQMRHK”, the “soluble on expression in E. coli” value is on record as “soluble”. As to “MSLKQVPDVNKIKFDPETKRIVRKDVPLMMNSFDKKAVEEAIRISERHGWETCVATMGPPQAVEVINEALRMGIERGYLITDPSLANSDTLITSRVLAAFALRYGPDLVLMGKYSLDGETSQVPAEVSALMGWPYVPSVSKIMISDHLELEQELENGIYTCSAPLPCVLSLSEKINRARAIKPDTPQMYDRIVQIDTKWLGLDLDGGRDSPTAVIGTEQVNSNRSPVFIDPGADMYRQIMEIIRVSRKNDRMKTIDLNYAEFRGEAWAIAIDSENASLEIASKVADIASENSFYVRVIGNVEFSDPRSVPAHHVDIISGTDAVGLSYYIVDEIKKHSPEFLIFPSTVTGRQISSLVAARFGLGLTADCVDLSYGDRGLLQYKPAFGGGVIAEIISRKKPAMATARPGMFRKVKVNIEPSISHMSLDPAGRIRYGQFIPVPQEFKPLEGSRLILGIGRGLKRKEDLPKIMELASMLGASVGGSRPIVDMNYIPRQQQIGLTGSAVSPDVYIALGISGQDNHIVGLRYARKIIAVNTDRNAPIFRYSDYGIIMDLMQFVEGFLHFLNAEGHHHHHH”, the “soluble on expression in E. coli” value was “not soluble”. With “MSRSKKTRRISDIMPARKADKKPALPISNSKKRKPTRYELDVQAREEKKKRKHKGLPTGSRNVITEQKTASAKVKKDPRVGSRKKVPLMVEFVNKPEKGQMIKPVPLEPSNHATKATVSPEVELTQLENNECLNQLLDQLEAGKVLSTQDQQFVDECLDRVHELIIELGIEDDEENNEDLLLRQFETIDINKFK” the entry was “not soluble”. With “MGSDKIHHHHHHMVLVVAGFDPSGGAGIIQDVKVLSALGVKTHAVISALTVQNENRVFSVNFRDWEEMRKEIEVLTPPRVIKVGLSAPETVKRLREMFPDSAIVWNVVLESSSGFGFQDPEEVKKFVEYADYVILNSEEAKKLGEYNNFIVTGGHEKGNTVKVKYRDFVFEIPRVPGEFHGTGCAFSSAVSGFLAMSYPVEEAIRSAMELLKKILERSSGVVETEKLLRDWYRYDTLNTLDEILPEFLEIGHLTVPEVGQNVSYALPWAKNEFEVGKFPGRIRLKEGKAVAVSCASFKDRSHTARMAVTMMRYHPHMRCVVNVRYEREYVERAKKRGLKVFHYDRSKEPKEVQEKEGQSMVWMIEQAIAELKSPPDVIYDEGWWGKEAMIRVFGRNPKEVLEKIKLMVRE” the entry was “not soluble”; with “MSLASTFKFLVTSDNHLGYQERDSRRGDDSFTTFEECLRAARLEHEVDAILLAGDFFHDNKPSLGCLARTSSLLRSYVLGDKPISFTLLSDPKRNFPTHPVPLANFQDPNINVALPIFMIHGNHDDPVGGTSSIDILSTAGLVNYFGHTSSLDDIVVEPVLLKKGDTYIALYGLGNVRDDRLHRCFRMKKLHFVQPKTEPGKDWFKILLFHQNRGVRSGGNMKCGIYETMLAGHGMDLVIWGNEHEQQMEPSPSEGFDIIQPGSTILTSLSEHECNPKKYGVLEVRGGSYRVTGFPLRSIRPVVRRTVELWRDNPGCRTLDAVEDFLRSVVEQMIEEAEEQVSRIPDDVLKFHPNIKFPIMRLAVDFTDPDSTTFPQPNINRFGQQYMDIVVNPSELLRPIKPKQVPRVASSASATGGEAPVVPVPRLNTSDIRTKVAEVFNANARDACSLLSESEVSAAVYAFAEKGERDAIDERICELLSKCQKSVWVSMRREGHHHHHH”, “soluble”. For “MSLTEMLSTEDFDFDLPEELIAQTPLKDRASSRLLVVNKETGDMEDKHFHDILDELQPGDALVMNNTRVLPARLYGEKPETGGHLEVLLLTNTEGDTWETLIKPAKRAKVGTEIQFGDGRLKAVVKEELEHGGRIIEFKYDGIFLEILESLGEMPLPPYIKERLDDPDRYQTVYAEENGSAAAPTAGLHFTKELLEEIKAKGVHLVYLTLHVGLGTFRPVSVDNIEEHHMHSEFYRLTEEAAKQLNEVRQAGGRIVAVGTTSIRTLETIGTKFNGEIQADSGWTDIFITPGYQFKVVEAFSTNFHLPKSTLVMLVSAFAGKDLTLAAYQHAIEEKYRFFSFGDAMFIKEGGSHHHHHH”, the “soluble on expression in E. coli” value is listed as “soluble”. The result for “MEDYANISKGKEKFFPHCFYGRCCARRMLCDANVFPYALPVEANSLKEQAPCLKDEECDLFPDFLGTCVHHQNVTNILENRRFKYFPTNNNVKPKGYGMCCYSKKSSICSTGGTPFEVELSDGPCSNHIDCNPDELPFKWNAYCSQNAKSNMCCRDTLVDSLCPDGFTPYRTQQKCEGYHPLSKSSGKCPKSNGMCHRGHCCPRLTIDEARKATPYHLNYVTDTQCDPTEPLDFVYRWAFCDEIEEKIVVMGDRNADGTELNWQQSRCTINR” reads “not soluble”.

With “MVKEFNTQTELSVRLEALWAVLSKDFITVVPKVLPHIVKDVQLIEGDGGVGTILIFNFLPEVSPSYQREEITEFDESSHEIGLQVIEGGYLSQGLSYYKTTFKLSEIEEDKTLVNVKISYDHDSDIEEKVTPTKTSQSTLMYLRRLERYLSNGSA”, the “soluble on expression in E. coli” value is “soluble”. The result for “GPGSMRSTAPLFMAQGIWAGFRYYLGHFFYPNMYREYLSVQNAHKIERALRIQTAIKANRVDYRALLALPVTDHAHPYKMEYPWEKVINTDKSKLSGYGKWYASKIMCFYEGLQYHKYGCLQDDLINAHGWWNRAARTRAPQDKIVHGDRRVMRARVLRDKYIYEPKSRWVHPIDNVAYFGPYVMMVCDEWEEKWGFFAGQEVEY” reads “not soluble”. As to “MISHCRRLLATTTALVIASTAIAAAEPSAELIAAAKKEGMLTTVALPHDWCGYGDVIAAFKAKYPEITVNELNPDAGSADEVEAVKANKDNKGPQAPDVVDVGLAFGPQMKAEGLLQPYKVSTWAEIPDNVKDADGYWYGDYYGVMSMFVNKDLVKNVPKDWADLLKPEYSGQVALAGDPRASNQAILGVLAAGLSTGAKSGKEAGEAGLKYFADLNKAGNFLPVIGKAGTLAQGATPIIVAWDYNALSWKKTLNDNPPTEVVVPEKGVLAGVYVQGISAYAPHPNAAKLWMEHLYSDDGQLGWLKGYCHPIRFNAMVKAGKVPQELIDSLPPAAAYEKAIFPTLEEVDANKAAVTGGWDKVVGANVK”, the “soluble on expression in E. coli” value is reported as “not soluble”.

For “MGIMADRLASMVVKATSPDGQIEGELRDRDAVSVAFRGDTYRHYTEYSLGTQLSRLALRMWTGYQRGYDEAVAEATGRPVSRSQETWDANRRRFRQEQAATTVTGMSTDGWIYIQNTGMTSWHVVIRQGTLSKLDEDQFVAELMDAYNTMITEYRFATADLRAKHYGVSFQPRNPPVKELRA”, the “soluble on expression in E. coli” value is “not soluble”.

With “MGSDKIHHHHHHMYSSEKMQWFAMRATYRRGMQIKGLLDQKGINSFIPMRYEIHLKNGHRRRELVPVIRDIVFVHTTQSELQRIKYGIPYFQYMMDIRNGEKIIVPDEQMRRFIAVAGTYDEQIIFFSPDEVNLRKGTKVRITGGQFEGYEGVFVKVKGSRDRRVVISLQGILALAMATLSPDLIEVIEEPKKRNHD”, the “soluble on expression in E. coli” value was “not soluble”. As to “MKKILILLTLCAFAFGASECDRKIDRINKEISFSKAHNDTARTLSLELALKQVQNDCAKDPMFYDKKLEAKKLKEQEVEKIEKELDALKEQKDYMSKAEYKAKKEALKEQKEKIKKLEHHHHHH”, the “soluble on expression in E. coli” value was “not soluble”. As to “MEKDKQQLSVEVARLYYQSDYSQQEIANKLNISRPTISRLLKYAKEKGFVQISIADPFADLDNVGNLLKEKYNLLEAHVVFSPVPEYATITEYISKYAAEYMEKTVKNGDIVGVSWGMTMYEIARKIVPQHVKGVEVVQLKGGISHSSVNTYANETIALFADAFQTTPRNLPLPVIFDNAVTKELVEQDRHIHHIIEMGKQANIAIFTVGTVRDEALLFRLGYFDKDETNLLKKQSVGDICSRFFDGDGNISSEEINKRTIGIELEELKLKKRSILVAGGNRKIKAIDGALRGGYANVLIIDQHTAKELLHYQKG”, the “soluble on expression in E. coli” value was “not soluble”. The result for “GSMALTQVETEIVPVSVDGETLTVEAVRRVAEERATVDVPAESIAKAQKSREIFEGIAEQNIPIYGVTTGYGEMIYMQVDKSKEVELQTNLVRSHSAGVGPLFAEDEARAIVAARLNTLAKGHSAVRPIILERLAQYLNEGITPAIPEIGSLGASGDLAPLSHVASTLIGEGYVLRDGRPVETAQVLAERGIEPLELRFKEGLALINGTSGMTGLGSLVVGRALEQAQQAEIVTALLIEAVRGSTSPFLAEGHDIARPHEGQIDTAANMRALMRGSGLTVEHADLRRELQKDKEAGKDVQRSEIYLQKAYSLRAIPQVVGAVRDTLYHARHKLRIELNSANDNPLFFEGKEIFHGANFHGQPIAFAMDFVTIALTQLGVLAERQINRVLNRHLSYGLPEFLVSGDPGLHSGFAGAQYPATALVAENRTIGPASTQSVPSNGDNQDVVSMGLISARNARRVLSNNNKILAVEYLAAAQAVDISGRFDGLSPAAKATYEAVRRLVPTLGVDRYMADDIELVADALSRGEFLRAIARETDIQLR” reads “soluble”. With “MPPNANSVGGPKKKNKKNHQRPQQQHQQTQPQPLPEEEQPENPIKKDPKPEVLEEVVEKNREEDKEKVEETVAPTIEKEKNISGDLLDFSSSDKSSLSSRPDSPEEDEDAVPVVNRTTTSPPTSPPSQTAVEQDSLQAEEMLVDMSLDDAPAAPPRKPHQRSAPPPIPSMNTIMTKPRTNSVSYIKGQVVRQSAVEQQTLANQVVDLVAMGMSKGQTQSSQITAEKAEWVQLTSVEKAGEPNERLEVLIVGLCRGYQIWTMSQSGEFEEVLSERQGPVRALKVLPNNLKLRGKKDSFADSRPLIAMVDASSHHPDRQYCSVTIISLLTGREVHKIKFEEPVCAVNVSDQFLVVSLANMAYAYDILTFNEVRTIRTAPSCENSPPALSLSCQLLAYADTSLDLNLQSSGGLAAEVEATSSEKYTDHIYTAMSYFSRSVKTISESVGAGSGSSTKANQPQGVITVLNLAVSGEDESDGVMCHYVAHVDPISYIAFSPDQRLVLSADANANVFNIFLLMPHATSSSLAAVQHLYKLNRGSTPAKVVSTAFSEDCRWLAITTNHATTHVFAVCPFGGKPNQRTHGDTFVNKESRFHRSAGLTDAADVTASIGPSKHRAMADSCSYTKEHPIAVNSPTLAKTNGNSRVGPFPPPLLLVATEKIKDSRYTKEDLSAWAADMTSFSYPAAQASSSPAVAARRRLEVSRMSVMFRMKSYNSTTSTKTAKTTKMLMSMSLVIAKVDPAQGVIVTQHDIKSLRKEGETNMEASPQISVAPVGGWILQRTKNNADMHAPMPSASPLMAFATVETVPAKRIGDEDVWTPHVETRTYLPPHRWIWQGPQFELFEYREDDQPSLMSPGNKGSNASFKSIPVLVGSEAVNITMKTIPADATRIECGSYTSANSYSIDQGSDQPVIGGYSSATNGDYIASIADAMRDISSDDDSTKKKSPKNDDLIEEFFDTESSTPFARNGSGSSSSTGATGGKSLKKKKTPPASAPLPTSSTKSSQKDKKVQNGRERSKDSDDFGTFDMDDI” the entry was “not soluble”.
